The text below walks through data of publication PMC10653861, “Three small partner proteins facilitate the type VII-dependent secretion of an antibacterial nuclease” (mBio, 2023).

This data set concerns the molecule itself. The data set can be described thus: cross-linking; purified complexes from the major SEC peaks, 0.5 mg/mL in 50 mM HEPES pH 7.5, 150 mM NaCl, 0.1% glutaraldehyde for 30 min at room temperature, quenched with tris; SEC and SDS-PAGE with Coomassie staining.

B1: EsaDEG trimer (complex)
chain 1: MTKDIEYLTADYDNEKSSIQSVIDAIEGQDFLDVDTTMDDAVSDVSSLDEDGAISLTSSVVGPQGSKLMGYYQNELYDYASQLDSKMKEIIDTPFIEDIDKAFKGITNVKLENILIKNGGGHGRDTYGASGKIAKGDAKKSDSDVYSIDEILKSDQEFVKVIDQHYKEMKKEDKKLSKSDFEKMMTQGASCDYMTVAEAEELEEQKKKEEAIEIAALAGMVVLSCINPVAGAVAIGAYSAYSAANAATGKNIVTGRKLSKEERIMEGLSLIPLPGMGFLKGAGKSLMKLGFKGGEKFAVKTGLQKTMQQAVSRISPKMGMMKNSVLNQSRNFAQNTHVGQMLSNMRGQATHTVQQSRNWIGQQAQNVKRIVNNGLDKEIAHPFKQQLAPAGMGGIKFAETTTLRNMGQNIKRAVTPQNHVTHGPKDSMVRSEGKHSISSHEMNSSKYVESPNYTKVEFGEHYARLRPKKLKANIEYTTPTGHIYRTDHKGRIKEVYVDNLSLKDGDRNSHAQRTVGGEDRLPDDDGGALIARMFGGSKDIDNLVAQSKFINRPFKEKGHWYNLEKEWQEFLNSGKEVKNIKMEVKYSGNSQRPTIFKVEYEINGERNIRRILNK
chain 2: MKDVKRIDYFSYEELTILGGSKLPLVNFELFDPSNFEEAKAALIEKELVTENDKLTDAGFKVATLVREYISAIVNIRINDMYFAPFSYEKDEYILLSRFKNNGFQIRIINKDIAWWSIVQSYPLLMRQEKSNDWDFKQIDDETLENLNNESIDTIGRVLEIEIYNHQGDPQQSLYNIYEQNDLLFIRYPLKDKVLNVHIGVINTFIRELFGFDTDENHINKAEE
chain 3: MTFEEKLSKIYNEIANEISSMIPVEWEKVYTMAYIDDGGGEVFFNYTKPGSDDLNYYTNIPKEYNISVQVFDDLWMDLYDLFEELRDLFKEEDLEPWTSCEFDFTREGELKVSFDYIDWINSEFGQIGRQNYYKYRKFGILPETEYEINKVKEIEQYIKELEE
notes: EsaD nuclease toxin of Staphylococcus aureus with H528A, as m1; EsaE chaperone of Staphylococcus aureus, as m5; EsaG immunity protein of Staphylococcus aureus, as m6; also called EsaDEG complex; not shown: His6, C-terminal, kept; copies: + +
Take B1: the binding result is reported as “binds”.
